The results in this text go back to patent US20180313836A1.

For this assay, the target named is Nrp1 immobilized on the biolayer interferometry biosensor (Homo sapiens (Human)) (UniProt O14786). Briefly: biolayer interferometry, Nrp1 immobilized on the biosensor.

As to “human glycyl-tRNA synthetase L129P (L129P-GlyRS^CMT2D) (from UniProt P41250 55-739) (enzyme)”, the Kd (usually the free concentration of one partner at which half of the binding sites on the other are occupied at equilibrium, for simple one-to-one binding) was 29.8 nM.
The value for “human glycyl-tRNA synthetase P234KY (P234KY-GlyRS^CMT2D) (from UniProt P41250 37-739) (enzyme)” was 209 nM.
